Measurements from patent US20140370022A1 (SAMSUNG LIFE PUBLIC WELFARE FOUNDATION, published 2014).

How the values were obtained:
[1] = biological target: c-Met protein (species and construct not stated); assay: SPR, Biacore T100, c-Met amine-coupled on CM5 chip, scFv as analyte
Excerpt: For the confirmation of more accurate binding affinity (coupling constant), the binding affinity of respective clones to c-Met was verified through surface plasmon resonance analysis. Respective antibody fragments were expressed in the host E. coli, followed by purification, and then dialyzed with PBS solution. Biacore T100 (GE healthcare) was used for the analysis. The c-Met protein was fixed to a dextran medium through an amine coupling reaction in the CM5 sensor chip. […] Based on these values, kinetic analysis was conducted through the BIA-evaluation program. As a result, the KD values of the 1F12 and 2A01 clones were measured to be 6⁻⁹×10⁻⁸ M and the Kd value of 2C03 was verified to be 10⁻⁷ M (Table 4).

[2] = biological target: T1, mouse c-Met-Fc protein (mouse c-Met extracellular domain + Fc) (mouse, UniProt P16056 25-931); assay: ELISA, periplasmic scFv-pIII extract on coated mouse c-Met-Fc, anti-HA-HRP, OD450 as ratio to control coat (BSA, IgG)
T1 construct: extracellular domain; not shown: Fc region of IgG
T1 sequence (P16056 25-931): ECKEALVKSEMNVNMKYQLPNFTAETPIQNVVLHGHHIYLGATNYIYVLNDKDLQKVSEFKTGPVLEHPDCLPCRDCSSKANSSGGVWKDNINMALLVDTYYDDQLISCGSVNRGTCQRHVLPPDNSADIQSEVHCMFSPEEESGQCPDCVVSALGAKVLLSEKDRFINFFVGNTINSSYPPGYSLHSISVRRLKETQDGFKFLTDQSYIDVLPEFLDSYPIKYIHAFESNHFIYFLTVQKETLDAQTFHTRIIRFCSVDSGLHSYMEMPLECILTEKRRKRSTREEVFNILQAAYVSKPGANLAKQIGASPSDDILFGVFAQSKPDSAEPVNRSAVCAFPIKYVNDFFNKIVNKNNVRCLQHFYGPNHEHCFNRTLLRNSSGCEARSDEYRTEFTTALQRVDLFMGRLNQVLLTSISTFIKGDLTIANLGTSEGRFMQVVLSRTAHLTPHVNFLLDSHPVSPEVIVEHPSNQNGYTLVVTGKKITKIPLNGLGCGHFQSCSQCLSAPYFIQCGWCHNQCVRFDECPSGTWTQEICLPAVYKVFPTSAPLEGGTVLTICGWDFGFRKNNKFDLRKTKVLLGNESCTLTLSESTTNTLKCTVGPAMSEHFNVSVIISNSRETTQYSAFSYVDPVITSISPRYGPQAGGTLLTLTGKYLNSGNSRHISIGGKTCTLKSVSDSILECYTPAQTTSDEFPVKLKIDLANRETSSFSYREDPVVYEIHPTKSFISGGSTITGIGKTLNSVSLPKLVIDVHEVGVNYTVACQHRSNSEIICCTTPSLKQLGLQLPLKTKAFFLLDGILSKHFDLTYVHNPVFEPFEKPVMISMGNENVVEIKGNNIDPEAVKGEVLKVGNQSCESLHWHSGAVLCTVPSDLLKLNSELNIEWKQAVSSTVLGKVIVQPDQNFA
Method: After a total of six rounds of panning with mouse/human c-Met were finished, the phage particles collected from the final round of panning were confirmed as colonies in the medium through infection of host cells. These colonies were taken and inoculated in a 96 well plate containing 200 μl of SB/ampicillin media and then cultured (37° C., within 3 hours). After that, for the induction of scFv-pIII protein expression, 1 mM final concentration IPTG was added to each well, followed by culturing overnight at 30° C. After that, the cultured plate was centrifuged to discard the supernatant. Then, for the collection of periplasmic fractions from the cultured cells in each well, the culture plate was treated with 40 μl of TES solution (20% w/v sucrose, 50 mM Tris, 1 mM EDTA, pH 8.0) maintained at 4° C., and then kept to stand at 4° C. for 30 minutes, so that the cells were lysed. After that, the cells were treated with 60 μl of 0.2×TES solution, and then kept to stand for 30 minutes. Finally, the plate was centrifuged and the supernatant was collected, thereby producing scFv-pIII protein on a small scale.
At the same time, a 96 well plate coated with human or mouse c-Met-Fc protein was prepared, and then 25 μl of aliquot was taken from the collected periplasmic fractions and added to each well, followed by binding for 1 hour. Then, after three or four times of washing procedures were performed using TBST, anti-HA-HRP antibody was added, followed by binding for 1 hour. The plate was again washed, followed by induction of a color development reaction (TMB substrate), and then the values of color development were measured at O.D. 450 nm. […] Since antibody in which c-Met extracellular domain binds to Fc region of IgG was used at the time of the panning, commercialized antibody (Erbitux) or BSA protein was used as a control group in order to exclude the phage particles that bind to Fc region.

[3] = biological target: T2, Control (BSA) (Bos taurus, UniProt P02769); assay: ELISA, 5 ug/ml scFv on coated Control (BSA), anti-HA-HRP
T2 construct: coated as control protein; also called BSA protein
T2 sequence (P02769 25-607 limits assumed): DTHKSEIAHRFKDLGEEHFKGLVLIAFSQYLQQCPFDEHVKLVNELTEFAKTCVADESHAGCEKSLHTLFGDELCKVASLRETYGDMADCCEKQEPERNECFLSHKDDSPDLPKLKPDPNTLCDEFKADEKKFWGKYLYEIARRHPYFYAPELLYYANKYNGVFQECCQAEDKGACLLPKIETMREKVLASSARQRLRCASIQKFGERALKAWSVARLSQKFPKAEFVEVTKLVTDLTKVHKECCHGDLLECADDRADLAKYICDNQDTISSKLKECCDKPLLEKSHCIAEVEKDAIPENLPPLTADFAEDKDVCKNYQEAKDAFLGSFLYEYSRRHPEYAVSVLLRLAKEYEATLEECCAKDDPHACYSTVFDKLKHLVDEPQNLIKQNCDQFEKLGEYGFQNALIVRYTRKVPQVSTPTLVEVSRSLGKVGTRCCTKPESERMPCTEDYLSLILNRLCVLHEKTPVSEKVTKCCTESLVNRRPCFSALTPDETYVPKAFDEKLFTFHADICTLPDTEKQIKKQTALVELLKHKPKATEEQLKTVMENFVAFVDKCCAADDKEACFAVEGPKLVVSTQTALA
Method: (§1) By using the produced scFv protein, the binding affinity to human/mouse c-Met extracellular domain+Fc protein was confirmed through ELISA. Human/mouse c-Met coated on a 96-well plate were treated with 5 μg/ml of scFv proteins (1F12, 2A01, 2C03, and 2D05), followed by binding at room temperature for 1 hour. After that, the plate was washed three times with 0.1% TBST solution, and then treated with anti-HA-HRP antibody for 1 hour, to detect the scFv proteins that bind to c-Met. After that, the plate was washed three times, and then treated with 10 μl of TMB substrate, followed by standing for 5 minutes. The reaction was stopped by using sulfuric acid solution, and then the absorbance was determined by ELISA reader. As a result, it was verified that each scFv protein had significant binding affinity to human and mouse c-Met proteins as compared with the control group (IgG, BSA) (FIG. 5A). In addition, after the cells were treated with 500 ng/ml of each scFv protein using human c-Met protein to which Fc region was not bound, the same ELISA assay was conducted.

[4] = biological target: T3, human c-Met-Fc protein (human c-Met extracellular domain + Fc) (human, UniProt P08581 25-932); assay: ELISA, scFv titrated 2-fold from 500 ng/ml on coated human c-Met, anti-HA-HRP, no HGF
T3 construct: extracellular domain; also called c-Met extracellular domain+Fc protein; not shown: Fc region of IgG
T3 sequence (P08581 25-932): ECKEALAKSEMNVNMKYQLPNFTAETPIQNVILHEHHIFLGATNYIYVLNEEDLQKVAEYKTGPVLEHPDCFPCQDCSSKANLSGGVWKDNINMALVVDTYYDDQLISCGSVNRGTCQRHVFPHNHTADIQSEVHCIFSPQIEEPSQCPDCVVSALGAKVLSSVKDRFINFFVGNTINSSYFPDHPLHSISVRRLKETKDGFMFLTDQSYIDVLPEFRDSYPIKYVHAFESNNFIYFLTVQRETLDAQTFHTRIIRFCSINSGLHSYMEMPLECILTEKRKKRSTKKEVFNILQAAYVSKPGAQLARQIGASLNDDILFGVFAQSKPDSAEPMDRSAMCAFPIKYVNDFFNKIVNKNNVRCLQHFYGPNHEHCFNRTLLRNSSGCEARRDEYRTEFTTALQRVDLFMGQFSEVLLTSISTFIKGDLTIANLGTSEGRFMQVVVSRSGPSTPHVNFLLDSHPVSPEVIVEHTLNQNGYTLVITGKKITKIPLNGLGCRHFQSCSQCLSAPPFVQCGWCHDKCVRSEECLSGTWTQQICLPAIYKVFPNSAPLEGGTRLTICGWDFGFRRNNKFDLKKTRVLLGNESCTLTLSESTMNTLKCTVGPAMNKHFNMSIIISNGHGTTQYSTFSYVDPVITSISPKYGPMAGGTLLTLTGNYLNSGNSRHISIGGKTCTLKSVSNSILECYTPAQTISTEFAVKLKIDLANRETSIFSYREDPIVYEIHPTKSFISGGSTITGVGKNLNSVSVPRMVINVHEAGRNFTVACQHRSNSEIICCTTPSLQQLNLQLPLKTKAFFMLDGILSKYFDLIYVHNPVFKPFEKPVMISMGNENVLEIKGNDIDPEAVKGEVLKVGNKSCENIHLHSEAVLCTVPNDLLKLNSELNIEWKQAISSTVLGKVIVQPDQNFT
Method: as §1, with “Human/mouse c-Met coated on a 96-well plate were treated with 5 μg/ml of scFv proteins (1F12, 2A01, 2C03, and 2D05), followed by binding at room temperature for 1 hour.” left out
For the verification of whether the selected scFv proteins have competitive binding affinity with the hepatocyte growth factor, which is the ligand of c-Met, the ligand competitive ELISA experiment was conducted. As in examples 2 and 4, the coated human c-Met was prepared, and respective wells were treated with samples in which each scFv protein was diluted at a 2-fold dilution from 500 ng/ml to about 1 ng/ml. After the treatment, the experiment procedure was conducted as in Example 4.

Sequence of c-Met protein (species and construct not stated) (P08581 whole entry, the tested form may be a part): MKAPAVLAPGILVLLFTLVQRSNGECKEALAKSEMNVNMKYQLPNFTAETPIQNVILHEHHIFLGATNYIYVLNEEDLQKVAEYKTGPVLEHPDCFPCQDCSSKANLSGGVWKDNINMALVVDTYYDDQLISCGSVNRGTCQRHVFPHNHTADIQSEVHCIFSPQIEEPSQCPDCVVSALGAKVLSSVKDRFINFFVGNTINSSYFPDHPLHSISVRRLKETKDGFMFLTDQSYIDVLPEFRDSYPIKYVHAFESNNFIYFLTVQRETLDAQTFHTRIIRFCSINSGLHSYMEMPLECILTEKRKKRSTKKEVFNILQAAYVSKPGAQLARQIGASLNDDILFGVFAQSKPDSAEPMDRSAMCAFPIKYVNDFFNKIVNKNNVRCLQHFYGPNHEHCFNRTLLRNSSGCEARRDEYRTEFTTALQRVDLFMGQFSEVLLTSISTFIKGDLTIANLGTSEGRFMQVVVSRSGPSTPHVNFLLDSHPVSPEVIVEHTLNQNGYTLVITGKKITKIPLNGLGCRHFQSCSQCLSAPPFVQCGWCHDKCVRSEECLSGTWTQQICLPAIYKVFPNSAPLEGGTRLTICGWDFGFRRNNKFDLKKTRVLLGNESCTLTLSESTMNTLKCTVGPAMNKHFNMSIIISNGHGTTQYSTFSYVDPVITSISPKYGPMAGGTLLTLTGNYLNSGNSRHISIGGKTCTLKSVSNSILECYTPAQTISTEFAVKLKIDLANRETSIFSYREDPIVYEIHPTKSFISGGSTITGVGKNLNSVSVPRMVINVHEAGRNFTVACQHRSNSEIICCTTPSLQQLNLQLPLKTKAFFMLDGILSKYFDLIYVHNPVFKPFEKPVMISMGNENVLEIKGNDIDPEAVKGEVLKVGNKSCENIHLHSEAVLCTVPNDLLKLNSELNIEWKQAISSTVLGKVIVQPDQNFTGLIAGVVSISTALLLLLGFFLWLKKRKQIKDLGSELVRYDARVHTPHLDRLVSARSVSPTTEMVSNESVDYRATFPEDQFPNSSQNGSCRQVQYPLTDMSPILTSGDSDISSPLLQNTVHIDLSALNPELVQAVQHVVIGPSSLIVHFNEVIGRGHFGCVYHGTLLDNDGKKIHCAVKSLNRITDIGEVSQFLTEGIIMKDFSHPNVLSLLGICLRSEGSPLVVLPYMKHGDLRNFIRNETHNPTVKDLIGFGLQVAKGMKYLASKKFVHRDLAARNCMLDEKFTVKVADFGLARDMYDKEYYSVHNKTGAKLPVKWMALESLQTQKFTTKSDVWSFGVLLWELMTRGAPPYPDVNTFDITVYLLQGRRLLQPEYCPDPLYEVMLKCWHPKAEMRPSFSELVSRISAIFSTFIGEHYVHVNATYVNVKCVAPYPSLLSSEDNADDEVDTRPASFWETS

Kd [1] [nM] | koff [1] [s⁻¹] | kon [1] [M⁻¹ s⁻¹] | binding result [2] | binding result [3] | EC50 (read off the curve) [4] [µg/mL] | Binder
66 | 0.153 | 2.32e+06 | binds | no binding (tested: 5 ug/ml) | – | 2A01 scFv antibody fragment (scFv, Soluble scFv of about 28 kDa expressed in E. coli TOP10F' and purified over Ni-NTA; also called 2A01 clone; 2A1) scFv: EVQLLESGGGLVQTGGSLRLSCAASGFTFSSYDMSWVRRAPGKGLEWVSWISHGGSSISYADSVKGRFTISRDNSKNTLYLQMNSLRAEDTAVYYCAKDAYPIRQETFDYWGQGTLVTVSSGGGGSGGGGSGGGGSQSVLTQPPSASGTPGQRVTISCSGSSSNIGNNDVSWYQQLPGTAPKLLIYPDSQRPSGVPDRFSGSKSGTSASLAISGLRSEDEADYYCASWDSSLSGYVFGGGTKLTVL
93.3 | – | – | binds | no binding (tested: 5 ug/ml) | ~0.04 | 1F12 scFv antibody fragment (scFv, Soluble scFv of about 28 kDa expressed in E. coli TOP10F' and purified over Ni-NTA; also called 1F12 clone) scFv: EVQLLESGGGLVQPGGSLRLSCAASGFTFSNYAMSWVRQAPGKGLEWVSGISYSGGSTYYADSVKGRFTISRDNSKNTLYLQMNSLRAEDTAVYYCAKASRSCQRPACSYANGMDVWGQGTLVTVSSGGGGSGGGGSGGGGSQSVLTQPPSASGTPGQRVTISCTGSSSNIGNNYVTWYQQLPGTAPKLLIYYNNHRPSGVPDRFSGSKSGTSASLAISGLQSEDEADYYCGSWDYSLSAYVFGGGTKLTVL
239 | 0.186 | 776000 | binds | no binding (tested: 5 ug/ml) | – | 2C03 scFv antibody fragment (scFv, Soluble scFv of about 28 kDa expressed in E. coli TOP10F' and purified over Ni-NTA; also called 2C03 clone; 2CO3) scFv: EVQLLESGGGLVQPGGSLRLSCAASGFTFSNYAMSWVRQAPGKGLEWVSAISYDSGSIYYADSVKGRFTISRDNSKNTLYLQMNSLRAEDTAVYYCAKAARSCRNWSCSYANGMDVWGQGTLVTVSSGGGGSGGGGSGGGGSQSVLTQPPSASGTPGQRVTISCTGSSSNIGSNYVSWYRQLPGTAPKLLIYSDSNRPSGVPDRFSGSKSGTSASLAISGLRSEDEADYYCGSWDDSLSGYVFGGGTKLTVL
